The values below come from PMC6289052.

The test system of data set [1] is TCF4 DBD (mouse). Put plainly: PBM. The settings on record: not given in the material (PBM protein binding as described previously).
Data set [2] relates to USF1 DBD (mouse). The data set is described as follows: PBM. The settings on record: not given in the material (PBM protein binding as described previously).

CAGGTGGT, cytosine displayed a binding signal in data set [1] of 52 Z-score.

Turning to GTCACGTG, cytosine, in data set [2], the binding signal was found to be 87 Z-score.
